# System: Escherichia coli TOP10
# Assay: shrunken log2 fold change of peptide-encoding DNA abundance (4.5 h post-induction vs induction); higher = less antimicrobial activity (less host growth inhibition)
# Settings: time post-induction: 4.5 h; library: site-saturation at positions 5, 18, 19, 20
# 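Also: peptides expressed intracellularly from a pBAD plasmid library in pooled LB shake-flask culture, induced with 0.3% L-arabinose, DNA abundance read by NGS, three biological replicates, DESeq2 with apeglm shrinkage.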
row,Sequence,shrunken log2 fold change
1,RRIRYRPPRLPRPRPRPLIYPRP,-1.24
2,RRIRYRPPRLPRPRPRPLKVPRP,-0.0432
3,RRIRYRPPRLPRPRPRPLLGPRP,-0.25
4,RRIRYRPPRLPRPRPRPLLPPRP,-0.266
5,RRIRYRPPRLPRPRPRPLLYPRP,-0.94
6,RRIRYRPPRLPRPRPRPLMGPRP,-0.0741
7,RRIRYRPPRLPRPRPRPLMPPRP,-0.931
8,RRIRYRPPRLPRPRPRPLNHPRP,-0.796
9,RRIRYRPPRLPRPRPRPLNMPRP,-1.33
10,RRIRYRPPRLPRPRPRPLRPPRP,0.786
11,RRIRYRPPRLPRPRPRPLRVPRP,-0.0922
12,RRIRYRPPRLPRPRPRPLSGPRP,-0.0308
13,RRIRYRPPRLPRPRPRPLTEPRP,-0.00518
14,RRIRYRPPRLPRPRPRPLTIPRP,-0.0265
15,RRIRYRPPRLPRPRPRPLTTPRP,-0.404
16,RRIRYRPPRLPRPRPRPLVEPRP,-0.234
17,RRIRYRPPRLPRPRPRPLVSPRP,-0.113
18,RRIRYRPPRLPRPRPRPLWDPRP,-0.717
19,RRIRYRPPRLPRPRPRPLWVPRP,-0.0829
20,RRIRYRPPRLPRPRPRPLWWPRP,-0.696
21,RRIRYRPPRLPRPRPRPMAAPRP,-0.115
22,RRIRYRPPRLPRPRPRPMANPRP,-0.223
23,RRIRYRPPRLPRPRPRPMCFPRP,-0.335
24,RRIRYRPPRLPRPRPRPMCYPRP,-0.399
25,RRIRYRPPRLPRPRPRPMDEPRP,-0.115

row,Sequence,shrunken log2 fold change
1,RRIRYRPPRLPRPRPRPMDLPRP,-0.0912
2,RRIRYRPPRLPRPRPRPMGPPRP,-0.121
3,RRIRYRPPRLPRPRPRPMGWPRP,-0.134
4,RRIRYRPPRLPRPRPRPMHQPRP,-0.0734
5,RRIRYRPPRLPRPRPRPMKNPRP,-0.191
6,RRIRYRPPRLPRPRPRPMLTPRP,-0.0378
7,RRIRYRPPRLPRPRPRPMMAPRP,-0.146
8,RRIRYRPPRLPRPRPRPMWNPRP,-0.302
9,RRIRYRPPRLPRPRPRPMYVPRP,-0.0549
10,RRIRYRPPRLPRPRPRPNCDPRP,-0.504
11,RRIRYRPPRLPRPRPRPNCEPRP,-0.144
12,RRIRYRPPRLPRPRPRPNEKPRP,-0.0256
13,RRIRYRPPRLPRPRPRPNFDPRP,-0.565
14,RRIRYRPPRLPRPRPRPNHIPRP,-1.27
15,RRIRYRPPRLPRPRPRPNHWPRP,-0.4
16,RRIRYRPPRLPRPRPRPNICPRP,-0.204
17,RRIRYRPPRLPRPRPRPNIEPRP,-0.801
18,RRIRYRPPRLPRPRPRPNKGPRP,-0.618
19,RRIRYRPPRLPRPRPRPNKIPRP,-0.995
20,RRIRYRPPRLPRPRPRPNLEPRP,-0.113
21,RRIRYRPPRLPRPRPRPNLYPRP,-0.658
22,RRIRYRPPRLPRPRPRPNMDPRP,-1.3
23,RRIRYRPPRLPRPRPRPNMNPRP,-0.882
24,RRIRYRPPRLPRPRPRPNMPPRP,-0.304
25,RRIRYRPPRLPRPRPRPNNCPRP,-0.0707

row,Sequence,shrunken log2 fold change
1,RRIRYRPPRLPRPRPRPNNIPRP,-1.24
2,RRIRYRPPRLPRPRPRPNNRPRP,-0.00509
3,RRIRYRPPRLPRPRPRPNNYPRP,-1.22
4,RRIRYRPPRLPRPRPRPNPCPRP,-0.0242
5,RRIRYRPPRLPRPRPRPNPLPRP,-0.766
6,RRIRYRPPRLPRPRPRPNPRPRP,-0.123
7,RRIRYRPPRLPRPRPRPNQSPRP,-0.268
8,RRIRYRPPRLPRPRPRPNQVPRP,-0.0141
9,RRIRYRPPRLPRPRPRPNQYPRP,-1.18
10,RRIRYRPPRLPRPRPRPNRMPRP,-0.22
11,RRIRYRPPRLPRPRPRPNRTPRP,-0.211
12,RRIRYRPPRLPRPRPRPNRYPRP,-0.499
13,RRIRYRPPRLPRPRPRPNTPPRP,-0.179
14,RRIRYRPPRLPRPRPRPNVCPRP,0.00285
15,RRIRYRPPRLPRPRPRPNWIPRP,-0.312
16,RRIRYRPPRLPRPRPRPNWNPRP,-1.09
17,RRIRYRPPRLPRPRPRPNWPPRP,0.394
18,RRIRYRPPRLPRPRPRPNWRPRP,0.326
19,RRIRYRPPRLPRPRPRPNWYPRP,-1.48
20,RRIRYRPPRLPRPRPRPNYHPRP,-1.04
21,RRIRYRPPRLPRPRPRPPADPRP,0.115
22,RRIRYRPPRLPRPRPRPPAGPRP,0.322
23,RRIRYRPPRLPRPRPRPPDPPRP,0.179
24,RRIRYRPPRLPRPRPRPPDSPRP,-0.0664
25,RRIRYRPPRLPRPRPRPPEGPRP,-0.455

row,Sequence,shrunken log2 fold change
1,RRIRYRPPRLPRPRPRPPEHPRP,-0.0551
2,RRIRYRPPRLPRPRPRPPEPPRP,0.35
3,RRIRYRPPRLPRPRPRPPFKPRP,-0.554
4,RRIRYRPPRLPRPRPRPPGAPRP,0.397
5,RRIRYRPPRLPRPRPRPPGPPRP,0.455
6,RRIRYRPPRLPRPRPRPPHFPRP,-0.139
7,RRIRYRPPRLPRPRPRPPHHPRP,-0.668
8,RRIRYRPPRLPRPRPRPPIQPRP,-0.589
9,RRIRYRPPRLPRPRPRPPKVPRP,-0.149
10,RRIRYRPPRLPRPRPRPPLIPRP,-0.185
11,RRIRYRPPRLPRPRPRPPMMPRP,-0.836
12,RRIRYRPPRLPRPRPRPPNKPRP,-0.585
13,RRIRYRPPRLPRPRPRPPPQPRP,0.776
14,RRIRYRPPRLPRPRPRPPQWPRP,0.204
15,RRIRYRPPRLPRPRPRPPRQPRP,0.0146
16,RRIRYRPPRLPRPRPRPPRTPRP,-0.0112
17,RRIRYRPPRLPRPRPRPPRYPRP,-0.226
18,RRIRYRPPRLPRPRPRPPSMPRP,-0.692
19,RRIRYRPPRLPRPRPRPPVAPRP,0.0771
20,RRIRYRPPRLPRPRPRPPVMPRP,-0.355
21,RRIRYRPPRLPRPRPRPPWKPRP,0.0467
22,RRIRYRPPRLPRPRPRPPYHPRP,-0.82
23,RRIRYRPPRLPRPRPRPPYQPRP,-0.369
24,RRIRYRPPRLPRPRPRPPYSPRP,-0.45
25,RRIRYRPPRLPRPRPRPQCCPRP,-0.18

row,Sequence,shrunken log2 fold change
1,RRIRYRPPRLPRPRPRPQCKPRP,-1.34
2,RRIRYRPPRLPRPRPRPQCNPRP,-0.269
3,RRIRYRPPRLPRPRPRPQDSPRP,-0.0125
4,RRIRYRPPRLPRPRPRPQENPRP,-0.00441
5,RRIRYRPPRLPRPRPRPQESPRP,-0.0191
6,RRIRYRPPRLPRPRPRPQFEPRP,-0.106
7,RRIRYRPPRLPRPRPRPQFNPRP,-0.755
8,RRIRYRPPRLPRPRPRPQGFPRP,-0.0121
9,RRIRYRPPRLPRPRPRPQGMPRP,-0.0114
10,RRIRYRPPRLPRPRPRPQHIPRP,-0.754
11,RRIRYRPPRLPRPRPRPQHLPRP,-0.262
12,RRIRYRPPRLPRPRPRPQHVPRP,-1.14
13,RRIRYRPPRLPRPRPRPQIEPRP,0.0413
14,RRIRYRPPRLPRPRPRPQKQPRP,0.00415
15,RRIRYRPPRLPRPRPRPQLLPRP,-0.42
16,RRIRYRPPRLPRPRPRPQLNPRP,-1.15
17,RRIRYRPPRLPRPRPRPQMGPRP,0.0669
18,RRIRYRPPRLPRPRPRPQMHPRP,-0.748
19,RRIRYRPPRLPRPRPRPQMPPRP,-0.205
20,RRIRYRPPRLPRPRPRPQNVPRP,-0.389
21,RRIRYRPPRLPRPRPRPQPAPRP,0.0964
22,RRIRYRPPRLPRPRPRPQPLPRP,-0.00898
23,RRIRYRPPRLPRPRPRPQPPPRP,0.163
24,RRIRYRPPRLPRPRPRPQQCPRP,-0.145
25,RRIRYRPPRLPRPRPRPQQIPRP,-0.142

row,Sequence,shrunken log2 fold change
1,RRIRYRPPRLPRPRPRPQRDPRP,-0.256
2,RRIRYRPPRLPRPRPRPQRHPRP,-0.48
3,RRIRYRPPRLPRPRPRPQRLPRP,-0.131
4,RRIRYRPPRLPRPRPRPQSDPRP,-0.251
5,RRIRYRPPRLPRPRPRPQSIPRP,-0.0346
6,RRIRYRPPRLPRPRPRPQWEPRP,-0.0193
7,RRIRYRPPRLPRPRPRPQYCPRP,-0.361
8,RRIRYRPPRLPRPRPRPQYGPRP,-0.161
9,RRIRYRPPRLPRPRPRPRFPPRP,-0.448
10,RRIRYRPPRLPRPRPRPRHDPRP,-0.237
11,RRIRYRPPRLPRPRPRPRHIPRP,-0.767
12,RRIRYRPPRLPRPRPRPRIIPRP,-0.457
13,RRIRYRPPRLPRPRPRPRMEPRP,-0.0654
14,RRIRYRPPRLPRPRPRPRNFPRP,-0.358
15,RRIRYRPPRLPRPRPRPRNMPRP,-0.56
16,RRIRYRPPRLPRPRPRPRPNPRP,-0.0554
17,RRIRYRPPRLPRPRPRPRRFPRP,0.256
18,RRIRYRPPRLPRPRPRPRRGPRP,0.114
19,RRIRYRPPRLPRPRPRPRSRPRP,0.07
20,RRIRYRPPRLPRPRPRPRTFPRP,-0.757
21,RRIRYRPPRLPRPRPRPRWDPRP,-0.0245
22,RRIRYRPPRLPRPRPRPRWRPRP,0.585
23,RRIRYRPPRLPRPRPRPRYEPRP,-0.415
24,RRIRYRPPRLPRPRPRPRYIPRP,-0.397
25,RRIRYRPPRLPRPRPRPRYLPRP,-0.176
